In PMC5862715:

Key:
Experiment in all cases: SDS-PAGE without pre-heating, with zymogram; crude enzymes (high concentration of (NH4)2SO4) in loading buffer with 10% SDS, not pre-heated, 10% polyacrylamide gel; compared with samples heated at 100 °C for 5 min; dimer band active on xylan plate
[1] = target: Xyn10A, GH10 family xylanase from Aspergillus fumigatus Z5 (Aspergillus fumigatus Z5)
[2] = target: Xyn10AdLC, CBM1 and linker region removed Xyn10A (Aspergillus fumigatus Z5)
[3] = target: Xyn10AdC, CBM1 removed Xyn10A (Aspergillus fumigatus Z5)

Substance: Xyn10A, GH10 family xylanase from Aspergillus fumigatus Z5 (enzyme)
- stoichiometry N [1]: 2

Substance: Xyn10AdLC, CBM1 and linker region removed Xyn10A (domain or fragment)
- stoichiometry N [2]: 2

Substance: Xyn10AdC, CBM1 removed Xyn10A (domain or fragment)
- stoichiometry N [3]: 2
